Experimental data from patent WO2009030872A1 (dated 2009).

B1: human monoclonal antibody clone A8 (antibody, V domains shown)
VH: EVQLLESGPGLVKPSGTLSLTCTVSGGSIRSSHWWSWVRQPPGKGLEWIGEVFFSGSTIYNPSLNDRVFMSVDKSKDQVSLRLSSVTAADTAVYYCARSPIKMNQGRMMLDAFDIWGQGTLVIVSS
VL: AELTQSPSSLSAFVGDRVTITCRASQSISRNLNWYQQKPGTAPKVLIYAASSLQSGVPSRFSGSGSGTDFTLTITSLQPEDFATYYCQQSYTTPRTFGQGTKVEVK
notes: also called mAb A8
B2: human monoclonal antibody clone 1:7 (antibody, V domains shown)
VH: VQLLEQSGAEVKKPGSSVKVSCQVFGDTFSRYTIQWLRQAPGQGPEWMGNIIPVYNTPNYAQKFQGRLSITADDSTSTAYMELSSLRSEDTAVYFCARVVIPNAIRHTMGYYFDYWGQGTLVTVSS
VL: AELTQSPATLSLSPGERATLSCRASQSVNKYLAWYQQKPGQAPRLLIYDASNRATGIPARFSGSGSGTDFTLTISNLEPEDFAVYYCQQRSDWVTFGGGTKVEIK
notes: also called mAb 1:7
B3: human monoclonal antibody clone L1 (antibody, V domains shown)
VH: EVQLLESGGGVVQPGRSLRLSCAASGFTFSAYGMHWVRQAPGKGLEWVAGIWFDGSNQYYSDSVKGRFTVSRDNSRNTLFLQMNSLRPEDTAVYYCATEVLFGSIKGRYYLENWGQGTLVTVSS
VL: AELTQSPGTLSLSVGERATLSCRASQNIYSGYLGWYQQKPGQPPRLLIYGASNRATGIPDRFSGSGSGTDFTLTISRLESEDFAVYYCQQYGSPPYTFGQGTKVEIK
notes: also called mAb L1; Ll

Assays:
[1] = biological target: E1E2 of HCV genotype 2a isolate JFH-1 (hepatitis C virus genotype 2a, isolate …); experiment: cell-based or functional assay
[2] = biological target: E1E2 of HCV isolate H77c with E2 substitution D535A (hepatitis C virus genotype 1a, isolate …, UniProt P27958 386-729; P27958 193-382); experiment: GNA capture ELISA on alanine-substituted H77c E1E2
[3] = biological target: E1E2 of HCV isolate H77c with E2 substitution W529A (hepatitis C virus genotype 1a, isolate …, UniProt P27958 386-729; P27958 193-382); experiment: GNA capture ELISA on alanine-substituted H77c E1E2
[4] = biological target: E1E2 of HCV isolate H77c with E2 substitution G523A (hepatitis C virus genotype 1a, isolate …, UniProt P27958 386-729; P27958 193-382); experiment: GNA capture ELISA on alanine-substituted H77c E1E2
[5] = biological target: E1E2 of HCV isolate H77c with E2 substitution G530A (hepatitis C virus genotype 1a, isolate …, UniProt P27958 386-729; P27958 193-382); experiment: GNA capture ELISA on alanine-substituted H77c E1E2
[6] = biological target: T1, E1E2 of HCV genotype 1a isolate H77c (hepatitis C virus genotype 1a, strain …, UniProt P27958 386-729; P27958 193-382); experiment: GNA capture ELISA on E1E2 of H77c
[7] = biological target: T1, E1E2 of HCV genotype 1a isolate H77c; experiment: inferred from GNA capture ELISA binding curve by non-linear regression

Row | Binder | IC50 of neutralization of HCVcc JFH-1 (density of E2 after western blotting) [1] | binding result [2] | binding result [3] | binding result [4] | binding result [5] | EC50 [6] | Kd [7]
1 | B1 | ~0.56 µg/mL | no binding | no binding | no binding | no binding | 0.44 µg/mL | ~2.7 nM
2 | B2 | ~0.06 µg/mL | no binding | no binding | no binding | no binding | 0.67 µg/mL | ~4.1 nM
3 | B3 |  |  |  |  |  | 2.31 µg/mL | ~15 nM
